Assay results from patent publication US5861254.

Tests used:
[1] = target: T1, L-selectin-IgG1 Fc fusion (LS-Rg) (Homo sapiens) (UniProt P14151); assay: SPR; conditions: 2'-F pyrimidines, 2'-OH purines, SHMCK buffer with Ca and Mg
T1 sequence: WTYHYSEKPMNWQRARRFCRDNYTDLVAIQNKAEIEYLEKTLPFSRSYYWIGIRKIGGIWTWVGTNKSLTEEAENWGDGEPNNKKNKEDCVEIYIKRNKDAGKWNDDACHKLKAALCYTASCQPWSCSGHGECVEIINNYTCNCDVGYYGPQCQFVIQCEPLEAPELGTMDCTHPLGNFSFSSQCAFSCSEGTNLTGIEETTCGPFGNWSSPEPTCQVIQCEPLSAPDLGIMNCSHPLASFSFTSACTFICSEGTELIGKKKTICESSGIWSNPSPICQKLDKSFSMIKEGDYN

[2] = target: T1, L-selectin-IgG1 Fc fusion (LS-Rg) (Homo sapiens); assay: filter; conditions: 2'-F pyrimidines, 2'-OH purines

In the case of “UCGGGCGGAAUUCAGGNNNNNNNNNNNNNNNNNNNNNNNNNNNNNNCCGCAUCGUCCUCCC [Flow Cell SELEX Rnd 5 pool]”, the Kd ([1]; ka 3.7e5, kd 1.5e-3) is reported as 4.1 nM and the Kd ([2]; only slightly improved over round 3 (160 pM), plateau below 20% bound) is reported as < 1 nM.
In the case of “UCGGGCGGAAUUCAGGNNNNNNNNNNNNNNNNNNNNNNNNNNNNNNCCGCAUCGUCCUCCC [Flow Cell SELEX Rnd 3 pool]”, the Kd ([1]; ka 4.9e4, kd 1.9e-3) is reported as 39 nM and the Kd ([2]; nitrocellulose filter binding, pool plateau below 20% bound in final mixtures) is reported as 0.16 nM.
In the case of “UCGGGCGGAAUUCAGGNNNNNNNNNNNNNNNNNNNNNNNNNNNNNNCCGCAUCGUCCUCCC [Flow Cell SELEX Rnd 4 pool]”, the Kd ([1]; ka 7.5e4, kd 1.8e-3) is reported as 24 nM.
Work on “UCGGGCGGAAUUCAGGNNNNNNNNNNNNNNNNNNNNNNNNNNNNNNCCGCAUCGUCCUCCC [Flow Cell SELEX Rnd 2 pool]” yielded a Kd ([1]; ka 1.7e4, kd 1.8e-3) of 110 nM.
